In the supplement of paper PMC10126150:
± gives the standard deviation of the averaged measurements.

Tested on: ATP
Test: switch fluorescence ratio, 500 uM ATP over buffer (Cy3 cluster intensity, sum of 5 cycles each) (fold (ratio)); higher = stronger signal-on switching upon ATP binding; sequences stand for … in TCGTCGGCAGCGTCAGATGTGTATAAGAGACAGTTTTTTTTTTTTTTTTTTTTTTTTT…TC
Details: aptamer strand: ATP DNA aptamer (quencher-CACCTGGGGGAGTATTGCGGAGGAAGG + anchor), 100 nM annealed; ATP concentration: 500 uM
Summary of the method: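 Between each of five buffer/ATP cycles, the flow-cell was stripped with NaOH and re-annealed. Each cycle imaged Cy3-labelled switching-strand clusters, annealed to 100 nM quencher-labelled ATP aptamer on a modified Illumina MiSeq flow-cell, first in selection buffer and then after 15 min with 500 uM ATP at 22 °C. The fluorescence ratio is summed target-cycle over summed buffer-cycle Cy3 intensity per cluster, averaged per switch-domain sequence, with clusters outside 100-1000 RFU excluded.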
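Further: ATP exposure 15 min at 22 °C before imaging.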

Sequence | switch fluorescence ratio
TTAATAGTGA | 0.973 ± 0.021
TTAATATAGG | 0.999 ± 0.011
TTAATCCATG | 0.988 ± 0.011
TTAATCTGCG | 1.01 ± 0.032
TTAATGAATA | 1.01 ± 0.035
TTAATGGGCG | 1.09 ± 0.18
TTAATGGGTT | 1.09 ± 0.14
TTAATGTGGA | 0.993 ± 0.046
TTAATTATTT | 0.998 ± 0.029
TTAATTGTAT | 0.992 ± 0.034
TTAATTGTGT | 0.993 ± 0.0095
TTAATTTAAG | 0.992 ± 0.038
TTAATTTGGG | 1.01 ± 0.024
TTAATTTGTG | 0.986 ± 0.017
TTAATTTTAT | 0.991 ± 0.015
TTACAAGGAT | 0.997 ± 0.012
TTACAAGGGT | 0.973 ± 0.023
TTACAATCAA | 0.999 ± 0.047
TTACACGTAA | 1.31 ± 0.019
TTACACTGTG | 1.001 ± 0.0054
TTACAGTTCG | 1.013 ± 0.0082
TTACATAAGG | 1.006 ± 0.0048
TTACATCGGA | 0.982 ± 0.03
TTACATTGTT | 1.06 ± 0.11
TTACCAGGGG | 1.4 ± 0.25

Sequence | switch fluorescence ratio
TTACCATCGG | 1.01 ± 0.024
TTACCATGGA | 0.995 ± 0.0021
TTACCCGGAA | 1.9 ± 0.048
TTACCCTAGG | 1.14 ± 0.024
TTACCGGATT | 0.993 ± 0.022
TTACCGGGGG | 1.042 ± 0.0095
TTACCGGGGT | 0.995 ± 0.035
TTACCGTCGC | 1.037 ± 0.0027
TTACCTACTT | 1.17 ± 0.12
TTACCTTTGG | 1.005 ± 0.0087
TTACGCAACC | 2.91 ± 0.58
TTACGCCGTT | 0.9446 ± 0.0049
TTACGCTATT | 3.4 ± 2.4
TTACGGGCGC | 0.9684 ± 0.0086
TTACGGGCTT | 0.989 ± 0.027
TTACGGGGCC | 0.977 ± 0.049
TTACGGGGTG | 1.02 ± 0.019
TTACGGTAGG | 1.01 ± 0.075
TTACGGTGGC | 0.989 ± 0.045
TTACGTCCGT | 1.04 ± 0.02
TTACGTGAGG | 1.02 ± 0.045
TTACGTTAAT | 1.18 ± 0.095
TTACTACCGG | 1.04 ± 0.012
TTACTCGCAT | 2.3 ± 1.2
TTACTCTGGG | 1.003 ± 0.0032

Sequence | switch fluorescence ratio
TTACTGCGTA | 1.02 ± 0.015
TTACTTATTA | 1.07 ± 0.018
TTACTTGATG | 1.02 ± 0.031
TTACTTGCGT | 1.06 ± 0.035
TTACTTTAGG | 1.05 ± 0.023
TTACTTTCCG | 1.11 ± 0.019
TTACTTTGAA | 1.01 ± 0.029
TTAGAAAAAG | 0.9811 ± 0.0052
TTAGAAATGT | 1.42 ± 0.84
TTAGAACAAG | 1.01 ± 0.019
TTAGAACTGA | 1.02 ± 0.023
TTAGAAGCCT | 1.14 ± 0.02
TTAGAAGGTA | 0.995 ± 0.035
TTAGAATGGG | 1.12 ± 0.14
TTAGAATGTA | 0.99 ± 0.023
TTAGAGAGGA | 0.987 ± 0.026
TTAGAGGCAG | 0.967 ± 0.025
TTAGAGGCGC | 1.035 ± 0.0095
TTAGAGGGAG | 1.03 ± 0.042
TTAGAGGGCA | 0.99086 ± 0.00097
TTAGAGGTAA | 1.01 ± 0.019
TTAGAGTACG | 1.036 ± 0.0075
TTAGATAGTA | 1.01 ± 0.043
TTAGATGAAG | 0.987 ± 0.031
TTAGATGGGG | 1.01 ± 0.11

Sequence | switch fluorescence ratio
TTAGATTACG | 0.998 ± 0.021
TTAGCATATA | 2.42 ± 1.9
TTAGCATGAT | 1.14 ± 0.2
TTAGCCACTT | 1.06 ± 0.066
TTAGCCCTCA | 0.981 ± 0.014
TTAGCGACGG | 0.992 ± 0.03
TTAGCGGGTT | 0.988 ± 0.048
TTAGCGGT | 1.004 ± 0.0093
TTAGCTTTGA | 0.992 ± 0.022
TTAGGAGCTT | 1 ± 0.014
TTAGGATAGG | 1.005 ± 0.0021
TTAGGCACGC | 1.01 ± 0.023
TTAGGCGCCC | 0.981 ± 0.029
TTAGGCGGGG | 1 ± 0.061
TTAGGCGTGG | 1.017 ± 0.006
TTAGGCTAAT | 1.02 ± 0.025
TTAGGCTGCG | 1.06 ± 0.1
TTAGGGACAA | 1.039 ± 0.0064
TTAGGGAGAG | 0.996 ± 0.016
TTAGGGATGG | 0.992 ± 0.023
TTAGGGCTTG | 0.992 ± 0.039
TTAGGGGAAT | 1.43 ± 0.75
TTAGGGGAGG | 0.9925 ± 0.0098
TTAGGGGCGC | 0.985 ± 0.014
TTAGGGGGAG | 1.03 ± 0.065

Sequence | switch fluorescence ratio
TTAGGGGGCT | 1 ± 0.033
TTAGGGGGGA | 0.987 ± 0.032
TTAGGGGGGC | 1.02 ± 0.053
TTAGGGGGGG | 1 ± 0.052
TTAGGGGGTA | 1.12 ± 0.27
TTAGGTAACT | 1.01 ± 0.019
TTAGGTCTCT | 0.977 ± 0.025
TTAGGTTATC | 1.01 ± 0.016
TTAGGTTCTA | 1.08 ± 0.12
TTAGGTTGTT | 1.01 ± 0.013
TTAGTAGAGT | 1 ± 0.013
TTAGTATGGA | 0.9837 ± 0.0013
TTAGTATTAC | 1.05 ± 0.029
TTAGTCAATG | 0.999 ± 0.022
TTAGTCATTC | 0.99 ± 0.038
TTAGTCCCGC | 1.066 ± 0.0024
TTAGTCGATA | 0.9767 ± 0.0021
TTAGTCGGAG | 0.981 ± 0.01
TTAGTCTTGA | 0.9796 ± 0.0028
TTAGTGACA | 1.042 ± 0.0095
TTAGTGACGT | 1.037 ± 0.0016
TTAGTGATGT | 1.03 ± 0.0097
TTAGTGGGTT | 1.01 ± 0.024
TTAGTGTTTG | 1.02 ± 0.006
TTAGTTATAT | 1.013 ± 0.0099

Sequence | switch fluorescence ratio
TTAGTTATTA | 1.017 ± 0.0041
TTAGTTGGGG | 1.01 ± 0.032
TTAGTTGTAG | 0.993 ± 0.026
TTAGTTTGGA | 0.959 ± 0.04
TTAGTTTGGG | 1.02 ± 0.016
TTAGTTTTTA | 0.991 ± 0.022
TTATAAATCT | 1.008 ± 0.0092
TTATAACCTG | 1.02 ± 0.037
TTATAACGTA | 1.07 ± 0.044
TTATAATTAT | 1.09 ± 0.092
TTATACTGGG | 0.992 ± 0.012
TTATAGATAT | 0.994 ± 0.015
TTATAGGCAG | 0.987 ± 0.01
TTATAGGCGT | 1 ± 0.02
TTATAGGTGC | 1.11 ± 0.022
TTATAGGTTA | 1.02 ± 0.015
TTATATACCA | 1.03 ± 0.079
TTATATATTT | 0.993 ± 0.015
TTATATCAAT | 0.9999 ± 0.0041
TTATATCGTT | 0.998 ± 0.017
TTATATCTTG | 1.0191 ± 0.00086
TTATATGGAG | 0.979 ± 0.034
TTATATGGTG | 0.98 ± 0.041
TTATATGTGA | 1.04 ± 0.011
TTATATTCTG | 0.9893 ± 0.0041

Sequence | switch fluorescence ratio
TTATATTTCG | 1 ± 0.032
TTATCAATAA | 1.42 ± 0.57
TTATCATAGG | 1.01 ± 0.012
TTATCATAGT | 1.005 ± 0.0064
TTATCCAGGC | 1.02 ± 0.12
TTATCGAGGC | 1.06 ± 0.059
TTATCGCAGA | 1 ± 0.015
TTATCGCTTA | 1.04 ± 0.098
TTATCGGCCA | 1 ± 0.067
TTATCGGGGC | 1 ± 0.025
TTATCGGTTT | 0.958 ± 0.019
TTATCTAGCT | 1.03 ± 0.023
TTATCTAGGG | 0.997 ± 0.041
TTATCTCATT | 1 ± 0.028
TTATCTGGAT | 1 ± 0.022
TTATCTGGGA | 0.9995 ± 0.0079
TTATCTGGGG | 1.01 ± 0.055
TTATCTTGTC | 1.03 ± 0.072
TTATCTTTGT | 0.9758 ± 0.007
TTATCTTTTT | 1 ± 0.032
TTATGACTCA | 1.01 ± 0.03
TTATGACTGT | 1.015 ± 0.01
TTATGAGGTG | 1.08 ± 0.061
TTATGATACG | 1.01 ± 0.017
TTATGATGAT | 1.006 ± 0.01

Sequence | switch fluorescence ratio
TTATGATGGG | 0.99 ± 0.017
TTATGATTGG | 0.987 ± 0.02
TTATGCACGG | 1.01 ± 0.044
TTATGCACGT | 1.04 ± 0.049
TTATGCAGGA | 0.955 ± 0.057
TTATGCAGGT | 1.0341 ± 0.00034
TTATGCATGA | 1 ± 0.047
TTATGGATAA | 1 ± 0.018
TTATGGATTT | 1.01 ± 0.037
TTATGGGGTA | 1.04 ± 0.049
TTATGGGGTG | 1.01 ± 0.027
TTATGGGTCG | 0.99 ± 0.034
TTATGTCAGC | 1.01 ± 0.023
TTATGTCTTC | 0.984 ± 0.026
TTATGTGAGG | 0.977 ± 0.034
TTATGTGAGT | 0.972 ± 0.0085
TTATGTGCTG | 1.02 ± 0.041
TTATGTGGAG | 0.974 ± 0.015
TTATGTGGGA | 0.975 ± 0.037
TTATGTGGTA | 1 ± 0.02
TTATGTGTTG | 1.01 ± 0.011
TTATGTTACT | 1.059 ± 0.0023
TTATGTTAGT | 1.01 ± 0.056
TTATTAAAGG | 1.02 ± 0.071
TTATTAAGAA | 1.02 ± 0.063
